In paper PMC2955050:
Non-standard residues stand in square brackets, D forms with d. No end group written: not given here. pY = N[C@@H](Cc1ccc(OP(=O)(O)O)cc1)C(=O)O

B1: Abelson peptide RDDT(pY)TAHAG (peptide)
peptide: RDDT[pY]TAHAG
B2: Cuticle peptide TAEPD(pY)GALYE (peptide)
peptide: TAEPD[pY]GALYE
B3: Myospheroid peptide CDDS(pY)FGNKC (peptide)
peptide: CDDS[pY]FGNKC
modifications: cysteine pairing not given here
B4: Insulin receptor peptide TRDI(pY)ETDYYRK (peptide)
peptide: TRDI[pY]ETDYYRK
B5: Nervous Fingers peptide VIGD(pY)VCRLCK (peptide)
peptide: VIGD[pY]VCRLCK
modifications: cysteine pairing not given here

Target: recombinant DLAR catalytic domain (Drosophila)

Kcat/Km of dephosphorylation of the peptide by DLAR (malachite green phosphatase assay)	Binder
180000 sec^-1M^-1	B1
300000 sec^-1M^-1	B2
143000 sec^-1M^-1	B3
264000 sec^-1M^-1	B4
196000 sec^-1M^-1	B5
